Measured values taken from patent US5834290.

Target: stratum corneum chymotryptic enzyme (SCCE), native, from human plantar stratum corneum (human)

- hydrolysis of S-2586 by the proteinase associated with plantar stratum corneum cells, Activity (%): 6 % activity
Substance: soybean trypsin inhibitor (SBTI) (from UniProt P01070)
